Measurements taken from patent publication US20260049134A1 (UNIVERSITY OF FLORIDA RESEARCH FOUNDATION, published 2026).

T1: CADM1, endogenous in H929 multiple myeloma cells (human, UniProt Q9BY67 45-442)
T1 construct: Native protein on H929 cells (flow cytometry, siRNA knockdown) and in H929 lysates (IP/MS); also called IGSF4A
T1 sequence: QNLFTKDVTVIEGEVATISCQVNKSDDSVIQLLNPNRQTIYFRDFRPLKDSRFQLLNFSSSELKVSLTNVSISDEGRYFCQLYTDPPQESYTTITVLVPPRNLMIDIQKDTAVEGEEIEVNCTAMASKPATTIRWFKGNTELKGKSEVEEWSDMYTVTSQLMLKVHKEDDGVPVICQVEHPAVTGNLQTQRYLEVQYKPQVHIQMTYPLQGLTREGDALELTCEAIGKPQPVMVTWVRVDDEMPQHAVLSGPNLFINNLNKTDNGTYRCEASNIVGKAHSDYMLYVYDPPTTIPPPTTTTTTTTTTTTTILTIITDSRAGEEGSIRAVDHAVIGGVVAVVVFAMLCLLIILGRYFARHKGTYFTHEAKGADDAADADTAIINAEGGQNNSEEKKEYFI


Columns and labels:
[1] = target: T1, CADM1, endogenous in H929 multiple …; test: IP from H929 cell lysate, LC-MS/MS, heatmap
Method: (§1) Immunoprecipitation. […] After 30 min of rocking at 4° C., and lysates were centrifuged at 18,400×g for 20 min at 4° C. Subsequently, 1-mL aliquots of the supernatants were pre-cleared twice with Protein G agarose (Thermo Fisher Scientific) by adding 50 μL of 50% resin slurry and incubating 30 min with end-over-end tumbling at 4° C., followed by centrifugation at 16,000×g for 5 min and pooling of the pre-cleared cell lysate aliquots. Representative mAbs from each cluster were immobilized on Protein G agarose at a ratio of 25 μg IgG1 per 30 μL of 50% slurry, diluted to 500 μL with Dulbecco's PBS (DPBS) and incubated for 1 h at 4° C. with tumbling, followed by centrifugation at 5,000×g for 30 s and 2 washes with lysis buffer. After the last wash, the ˜15 μL of IgG1-coated resin was blocked with 10 μL of 10% BSA (MilliporeSigma). Next, 1 mL of the pooled pre-cleared cell lysate was added to the IgG1-coated resin and incubated for 3 h at 4° C. with tumbling. The immune complexes were pelleted by centrifugation at 2,500×g at 4° C. for 30 s, and gently resuspended to wash for 3 min in 1 mL of lysis buffer, which was repeated once with lysis buffer and twice with an identical wash buffer lacking Triton X-100. Finally, the immune complexes were eluted from the resin with three batch-wise steps using 30 μL of elution buffer (6 or 8 M urea (MilliporeSigma), 20 mM Tris-HCl pH 7.5, and 100 mM NaCl) and incubating 15 min at RT with 450 rpm orbital agitation. Finally, 16 μL of the eluate (˜20%) was analyzed on a reducing SDS-PAGE gel stained with SYPRO Ruby dye (Bio-Rad Laboratories), while the rest was stored at −80° C. prior to LC-MS/MS analysis.
(§2) Protein elutions in 6 or 8 M urea were reduced with 15 mM dithiothreitol at 56° C. for 30 min followed by alkylation with 30 mM iodoacetamide in the dark at RT. The elutions were then diluted to 1 M urea with 50 mM ammonium bicarbonate pH 7.8 and digested overnight at 37° C. following the addition of 4 μg trypsin (Promega).

[2] = target: T2, ICAM1, endogenous in H929 multiple myeloma cells (human, UniProt P05362 28-532); test: IP from H929 cell lysate, LC-MS/MS, heatmap
T2 construct: Native protein on H929 cells (flow cytometry, siRNA knockdown) and in H929 lysates (IP/MS); also called CD54
Method: as §1, §2

[3] = target: T3, PTPRG, endogenous in H929 multiple myeloma cells (human, UniProt P23470 20-1445); test: flow cytometry, H929 + PTPRG siRNA (target knocked down); None 490
T3 construct: Native protein on H929 cells (flow cytometry, siRNA knockdown) and in H929 lysates (IP/MS); also called phosphatase receptor type γ

[4] = target: T3, PTPRG, endogenous in H929 multiple …; test: IP from H929 cell lysate, LC-MS/MS, heatmap
Method: as §1, §2

T2 sequence (P05362 28-532 limits assumed): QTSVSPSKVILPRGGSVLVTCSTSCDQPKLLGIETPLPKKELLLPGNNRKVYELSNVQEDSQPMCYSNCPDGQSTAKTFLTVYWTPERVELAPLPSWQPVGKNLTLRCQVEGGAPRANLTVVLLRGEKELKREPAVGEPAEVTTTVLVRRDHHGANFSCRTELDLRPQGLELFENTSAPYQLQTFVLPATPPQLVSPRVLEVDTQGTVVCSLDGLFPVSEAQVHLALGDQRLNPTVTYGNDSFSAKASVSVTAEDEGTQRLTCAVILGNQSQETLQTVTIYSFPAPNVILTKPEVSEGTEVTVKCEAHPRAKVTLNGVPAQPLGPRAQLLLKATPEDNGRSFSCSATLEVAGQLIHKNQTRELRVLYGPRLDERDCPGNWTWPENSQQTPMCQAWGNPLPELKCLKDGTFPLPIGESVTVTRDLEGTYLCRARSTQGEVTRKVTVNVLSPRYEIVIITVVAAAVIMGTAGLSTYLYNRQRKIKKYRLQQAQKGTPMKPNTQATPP
T3 sequence (P23470 20-1445 limits assumed): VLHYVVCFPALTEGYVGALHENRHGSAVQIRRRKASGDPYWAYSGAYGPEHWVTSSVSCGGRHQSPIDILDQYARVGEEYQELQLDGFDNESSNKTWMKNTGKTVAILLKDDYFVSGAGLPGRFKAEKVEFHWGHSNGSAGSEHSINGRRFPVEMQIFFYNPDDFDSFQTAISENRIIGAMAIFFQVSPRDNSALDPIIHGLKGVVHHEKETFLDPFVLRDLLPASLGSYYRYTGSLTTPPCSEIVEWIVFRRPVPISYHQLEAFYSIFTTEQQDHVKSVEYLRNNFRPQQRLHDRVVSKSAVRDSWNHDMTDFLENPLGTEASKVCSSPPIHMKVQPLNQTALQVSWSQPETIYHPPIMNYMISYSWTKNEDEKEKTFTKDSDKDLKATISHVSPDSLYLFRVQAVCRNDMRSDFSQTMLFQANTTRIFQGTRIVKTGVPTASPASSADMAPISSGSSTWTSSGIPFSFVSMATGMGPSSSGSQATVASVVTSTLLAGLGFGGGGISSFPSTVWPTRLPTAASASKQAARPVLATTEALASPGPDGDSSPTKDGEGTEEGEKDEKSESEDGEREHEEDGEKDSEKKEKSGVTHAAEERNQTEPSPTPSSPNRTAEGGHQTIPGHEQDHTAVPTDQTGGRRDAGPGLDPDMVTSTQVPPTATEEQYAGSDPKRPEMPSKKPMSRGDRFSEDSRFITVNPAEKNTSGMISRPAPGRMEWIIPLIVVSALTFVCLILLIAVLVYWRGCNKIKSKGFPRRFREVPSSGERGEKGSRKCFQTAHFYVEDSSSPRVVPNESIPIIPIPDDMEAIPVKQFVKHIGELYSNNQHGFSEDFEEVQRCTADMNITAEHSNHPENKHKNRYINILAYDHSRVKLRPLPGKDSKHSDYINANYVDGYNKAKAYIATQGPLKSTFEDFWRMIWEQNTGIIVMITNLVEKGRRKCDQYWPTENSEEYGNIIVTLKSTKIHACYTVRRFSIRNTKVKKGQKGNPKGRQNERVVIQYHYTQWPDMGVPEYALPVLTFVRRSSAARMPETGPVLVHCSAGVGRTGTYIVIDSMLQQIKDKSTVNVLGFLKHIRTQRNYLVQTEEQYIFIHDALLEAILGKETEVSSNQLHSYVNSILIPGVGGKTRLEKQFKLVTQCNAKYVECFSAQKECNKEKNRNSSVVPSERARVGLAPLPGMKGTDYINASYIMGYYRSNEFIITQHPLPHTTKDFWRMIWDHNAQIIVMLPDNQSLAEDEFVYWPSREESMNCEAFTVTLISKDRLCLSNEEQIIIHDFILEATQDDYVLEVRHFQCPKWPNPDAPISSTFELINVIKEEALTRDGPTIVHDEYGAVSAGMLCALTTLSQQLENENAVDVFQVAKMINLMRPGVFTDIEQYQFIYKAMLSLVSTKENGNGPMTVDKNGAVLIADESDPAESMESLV

| binding result [1] | binding result [2] | mAb binding (MFI) [3] | binding result [4] | Binder |
| --- | --- | --- | --- | --- |
| no binding | – | – | no binding | HW-113 chimeric rabbit-human IgG1 LA/LA/PG (antibody, V domains shown, Fc-silenced (L234A/L235A/P329G) IgG1, lambda; Alexa Fluor 647-labeled in single-step flow cytometry) VH: QKQLVESGGGLVQPGGSLTLTCTVSGFSLNKYYMGWFRQAPGKGLEWIGVISRSGDTYYSSWAKGRFTISKASTTVDLRITSPTTEDTATYFCARDASSPGFHGDRLDLWGQGTLVTVSS VL: SFVLTQPASVQVNLGQTVSLTCTADTLSRSYASWYQQKPGQAPVLLIYRDTSRPSGVPDRFSGSSSGNTATLTISGAQAGDEADYYCATSDGIGSNYLWVFGGGTQLTVTG |
| – | no binding | – | no binding | HW-101 chimeric rabbit-human IgG1 LA/LA/PG (antibody, V domains shown, Fc-silenced (L234A/L235A/P329G) IgG1, lambda; Alexa Fluor 647-labeled in single-step flow cytometry; Cluster C-97) VH: QEQLVESGGRLVTPGTPLTLTCKASGFSLGKYDMSWVRQAPGKGLEWIGTIYAGSGSTWYASWAKGRFTISKTSTTVDLKMTSLTTEDTATYFCARDFLGVNSIWGPGTLVTISS VL: SFVLTQPASVQVNLGQTVSLTCTADTLSRSYASWYQQKPDQAPVLLIHRDTSRPSGVPDRFSGSNSGNTATLTISGAQAGDEADYYCATSDGSGSNFHFVFGGGTQLTVTG |
| no binding | no binding | 1140 | – | HW-1 chimeric rabbit-human IgG1 LA/LA/PG (antibody, V domains shown, Fc-silenced (L234A/L235A/P329G) IgG1, lambda; Alexa Fluor 647-labeled in single-step flow cytometry; Prototype of cluster C-1) VH: QSLEESGGGLFKPTDTLTLTCTASGFSLGSSYAISWVRQAPGKELEWIGTIDSGRAYYARWAKSRSTITRNTNENTVTLKMTSLTAADTATYFCARDLIPTYSQDIWGPGTLVTISS VL: SFVLTQPASVQVNLGQTVSLTCTADTLSRRYASWYQQKPGQAPVLLIYRDTSRPSGVPDRFSGSSSGNTATLTISGAQAGDEADYYCATSDGSGNSYQYVFGGGTQLTVTS |
| no binding | no binding | – | no binding | HW-45 chimeric rabbit-human IgG1 LA/LA/PG (antibody, V domains shown, Fc-silenced (L234A/L235A/P329G) IgG1, lambda; Alexa Fluor 647-labeled in single-step flow cytometry; Prototype of cluster C-45) VH: QKQLVESGGRLVTPGTPLTLTCTVSGFSLSSYAMGWFRQAPGKGLEWIGIINSYGSTYYASWAKGRFTISKTSTTVDLKITSPTTEDTATYFCGRRIGSARFDPWGPGTLVTVSS VL: SFVLTQPASVQVNLGQTVSLTCTADTLSRSYASWYQQKPGQAPVLLIYRDTRRPSGVPDRFSGSSSGNTATLTISGAQAGDEADYYCATSDGSGSSYRLVFGGGTQLTVTG |

Second part, the binder before the results:

| Binder | binding result [1] | binding result [2] | mAb binding (MFI) [3] | binding result [4] |
| --- | --- | --- | --- | --- |
| TH9-0022 (antibody, human IgG1, kappa, L234A L235A, V domains shown, also called TH9-022; negative control IgG1) VH: QSLEESGGRLVTPGTPLTLTCTVSGFSLSSYAMNWVRQAPGKGLEWIGIINSYGSTYYASWAKGRFTISKTSTTVDLKITSPTTEDTATYFCARVTYDSYGYGYAPYGMDLWGPGTLVTVSS VL: LVMTQTPSSTSNAVGGTVTIKCQASQSIGNVLAWYQQKPGQPPKLLIYAASTLASGVPSRVGGSRSGTEYTLTISGVQREDAATYYCLGSDSDSDIAFGGGTELEILR | no binding | no binding | – | – |
| HW-42 chimeric rabbit-human IgG1 LA/LA/PG (antibody, V domains shown, Fc-silenced (L234A/L235A/P329G) IgG1, lambda; Alexa Fluor 647-labeled in single-step flow cytometry; Cluster C-1) VH: QSVKESEGGLFKPADTLTLTCTVSGFSLSSNEISWVRQAPGEGLEYIGIIDTGGRAYYAVWARSRSTITRNTNLNTVTLKMTSLTAADTATYFCARGGVDTEWYAFSSWGPGTLVTVPS VL: SFVLTQPASVQVNLGQTVSLTCTADTLSRRYASWYQQKPGQAPVLLIFRDTSRPSGVPDRFSGSSSGDTATLTISGAQAGDEADYYCATSDGSGSNYQYVFGGGTQLTVTG | – | – | 649 | – |
| HW-17 chimeric rabbit-human IgG1 LA/LA/PG (antibody, V domains shown, Fc-silenced (L234A/L235A/P329G) IgG1, lambda; Alexa Fluor 647-labeled in single-step flow cytometry; Cluster C-1) VH: QSLGESRGRLVTPDETLTLTCTVSGIDLSSNAMSWVRQAPGEGLEWIGTINTGGRAYYASWAKGRFTISRTSTTVDLKMTSLTTEDTATYFCARERYSDGRAYDIWGPGTLVTISS VL: SFVLTQPASVQVNLGQTVSLTCTADTLSRRYASWYQQKPGQAPVLLIYTDSNRPSGIPDRFSGSSSGNTATLTISGAQAGDEADYYCATDDGSGSIYQYVFGGGTQLTVTG | – | – | 1160 | – |
| HW-25 chimeric rabbit-human IgG1 LA/LA/PG (antibody, V domains shown, Fc-silenced (L234A/L235A/P329G) IgG1, lambda; Alexa Fluor 647-labeled in single-step flow cytometry; Cluster C-1) VH: QSLEESGGRLVTPGTPLTLTCTVSGFSLSSYAMGWVRQAPGKGLEWIGIIDSRGSTYYATWAKGRFTISKTSTTVDLKITSPTTEDTATYFCAREDSYYYDSFNLWGPGTLVTVSS VL: SFVLTQPASVQVNLGQTVSLTCTADTLSRRYASWYQQKPGQAPVLLIYRDTSRPSGVPDRFSGSSSGNTATLTISGAQAGDEADYYCATSDGSGSSYQCVFGGGTQLTVTG | – | – | 839 | – |
| HW-70 chimeric rabbit-human IgG1 LA/LA/PG (antibody, V domains shown, Fc-silenced (L234A/L235A/P329G) IgG1, lambda; Alexa Fluor 647-labeled in single-step flow cytometry; Cluster C-1) VH: QSLEESGGRLVTPGTPLTLTCTVSGFSLSSNAMSWVRQAPGKGLEWIGTIDGYGYTYYASWAKGRFTVSKTSTTVDLKITSPTTEDTATYFCAREIYLGSNFWGPGTLVTISS VL: SFVLTQPASVQVNLGQTVSLTCTADTLSRRYASWYQQKPGQAPVLLIYRDTSRPSGVPDRFSGSSSGNTATLTISGAQAGDEADYYCATADGSGSSYQFVFGGGTQLTVTG | – | – | 840 | – |
